Results: the supplement of paper PMC10567573

B1: DVL3 (parent)
chain: SDVVDWLYHNVEGFTDRREARKYA

Variants of: B1
Experiment: protein stability index of a GFP-peptide fusion (GPS, HEK-293T) (PSI 1-6); higher = more stable
Conditions: c terminus: a fixed tail appended
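Further: lentivirally expressed fusions sorted by FACS into six bins by GFP to DsRed ratio, PSI derived from sequencing read proportions per bin multiplied by bin number.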

Variant | protein stability index
D2M | 2.09
D2N | 3.36
D2P | 2.62
D2R | 2.23
D2S | 2.74
D2T | 2.9
D2V | 2.72
D2W | 1.64
D2Y | 2.26
V3A | 3.98
V3C | 3.69
V3D | 4.59
V3E | 5.17
V3F | 2.07
V3H | 3.39
V3I | 2.98
V3L | 3.15
V3M | 3.85
V3N | 4.22
V3P | 4.24
V3Q | 4.64
V3R | 3.95
V3S | 3.44
V3T | 4.13

Variant | protein stability index
V3W | 2.04
V3Y | 3
V4A | 3.09
V4C | 2.77
V4D | 3.78
V4E | 4.08
V4F | 3.53
V4G | 3.84
V4H | 3.52
V4I | 2.56
V4K | 3.46
V4L | 2.98
V4M | 3.76
V4N | 3.89
V4P | 3.81
V4Q | 3.67
V4R | 3.84
V4S | 3.68
V4T | 3.6
V4W | 2.44
V4Y | 3.21
D5A | 1.98
D5C | 1.84
D5E | 3.6

Variant | protein stability index
D5F | 2.21
D5G | 3.06
D5H | 2.44
D5I | 1.82
D5K | 2.36
D5L | 1.41
D5M | 2.87
D5N | 2.07
D5P | 3.71
D5Q | 3.23
D5S | 2.5
D5T | 2.75
D5V | 1.19
D5W | 1.7
D5Y | 2.53
W6A | 4.58
W6C | 3.81
W6D | 4.75
W6E | 4.97
W6F | 2.9
W6G | 4.32
W6H | 4.21
W6I | 4.13
W6K | 4.38

Variant | protein stability index
W6L | 4.35
W6M | 3.82
W6N | 4.95
W6P | 4.86
W6Q | 4.22
W6R | 4.79
W6S | 4.76
W6T | 4.54
W6V | 4.58
W6Y | 3.6
L7A | 3.54
L7C | 3.65
L7D | 4.58
L7E | 5.12
L7F | 2.12
L7G | 4.25
L7H | 4.68
L7I | 3.01
L7K | 4.64
L7M | 3.44
L7P | 3.63
L7Q | 4.31
L7R | 2.65
L7S | 4.75

Variant | protein stability index
L7T | 4.05
L7V | 3.5
L7W | 3.58
L7Y | 3.28
Y8C | 3.79
Y8D | 4.61
Y8E | 4.2
Y8G | 4.25
Y8I | 2.39
Y8K | 3.83
Y8L | 2.27
Y8M | 2.74
Y8N | 3.87
Y8P | 4.51
Y8Q | 3.81
Y8S | 3.56
Y8T | 3.63
Y8V | 2.93
Y8W | 2.31
H9A | 2.37
H9C | 2.13
H9D | 3.66
H9F | 2.14
H9G | 3.32

Variant | protein stability index
H9I | 2.09
H9K | 2.67
H9L | 2.55
H9M | 2.79
H9N | 3.83
H9P | 4
H9Q | 3.11
H9R | 2.8
H9S | 2.94
H9T | 2.67
H9V | 2.16
H9W | 2.42
H9Y | 3.21
N10A | 2.1
N10C | 2.1
N10D | 4.09
N10E | 3.69
N10F | 1.75
N10G | 3.03
N10H | 2.7
N10I | 2.25
N10K | 2.34
N10L | 2
N10M | 1.94

Variant | protein stability index
N10Q | 2.91
N10R | 2.6
N10S | 3.01
N10T | 3.33
N10V | 2.58
N10W | 2.63
N10Y | 2.01
V11A | 2.8
V11C | 3.07
V11D | 3.62
V11E | 3.53
V11F | 2.46
V11G | 4.04
V11H | 3.6
V11I | 2.61
V11K | 3.85
V11L | 2.03
V11M | 2.58
V11N | 3.83
V11P | 4.08
V11Q | 3.36
V11R | 3.1
V11S | 2.45
V11T | 2.67

Variant | protein stability index
V11W | 2.36
V11Y | 3.48
E12A | 3.49
E12C | 2.18
E12D | 2.96
E12F | 1.98
E12G | 2.37
E12H | 2.88
E12I | 1.94
E12K | 3.54
E12L | 2.08
E12M | 2.01
E12N | 2.5
E12P | 2.33
E12Q | 2.98
E12R | 2.78
E12S | 2.83
E12T | 2.63
E12V | 1.28
E12W | 2.04
E12Y | 1.58
G13A | 2.71
G13C | 2.68
G13D | 3.66

Variant | protein stability index
G13E | 3.3
G13F | 1.61
G13H | 2.56
G13I | 2.28
G13K | 2.95
G13L | 2.28
G13M | 2.71
G13N | 2.66
G13P | 3.2
G13Q | 2.33
G13R | 3.93
G13S | 2.96
G13T | 2.93
G13V | 2.14
G13W | 2.52
G13Y | 2.1
F14C | 3.04
F14D | 3.95
F14E | 4.77
F14G | 3.96
F14H | 3.27
F14I | 3.97
F14K | 4.76
F14L | 3.11

Variant | protein stability index
F14N | 3.61
F14P | 3.61
F14Q | 3.86
F14R | 2.56
F14S | 4.19
F14T | 3.87
F14W | 3.18
T15A | 2.32
T15C | 2.67
T15D | 3.04
T15F | 2.15
T15G | 2.7
T15H | 3.23
T15I | 2.83
T15K | 2.56
T15L | 2.91
T15M | 3.02
T15N | 3.13
T15P | 2.92
T15Q | 3.21
T15R | 2.91
T15V | 2.85
T15W | 2.74
T15Y | 3.24

Variant | protein stability index
D16A | 2.45
D16C | 1.92
D16E | 3
D16F | 2.94
D16H | 2.37
D16I | 3.24
D16K | 2.29
D16L | 2.07
D16M | 2.29
D16P | 3.74
D16Q | 3.19
D16R | 2.21
D16T | 2.66
D16V | 2.24
D16W | 2.12
D16Y | 2.06
R17A | 2.81
R17C | 3.43
R17D | 3.56
R17E | 3.82
R17F | 2.16
R17H | 4.21
R17I | 1.82
R17K | 3.7

Variant | protein stability index
R17L | 2.69
R17M | 2.63
R17N | 2.65
R17P | 3.33
R17Q | 3.67
R17S | 3.9
R17T | 3.09
R17V | 2.37
R17W | 2
R17Y | 2.45
R18A | 3.19
R18C | 2.52
R18D | 3.99
R18E | 3.84
R18F | 2.35
R18G | 2.38
R18H | 3.41
R18I | 2.42
R18K | 2.97
R18L | 2.04
R18M | 2.4
R18N | 3.55
R18P | 3.03
R18Q | 2.94

Variant | protein stability index
R18S | 3.43
R18T | 3.59
R18V | 3.53
R18W | 1.55
R18Y | 2.19
E19A | 2.54
E19C | 2.38
E19D | 3.18
E19F | 2.34
E19G | 3.02
E19H | 2.58
E19I | 2.25
E19K | 2.33
E19L | 2.35
E19M | 2.67
E19N | 2.86
E19P | 2.85
E19S | 2.73
E19T | 2.64
E19V | 2.66
E19W | 1.82
E19Y | 1.73
A20C | 2.73
A20D | 3.1

Variant | protein stability index
A20E | 3.5
A20F | 2.28
A20G | 4.09
A20H | 3.02
A20I | 1.98
A20K | 2.56
A20L | 2.34
A20M | 3.28
A20N | 2.96
A20P | 4.29
A20Q | 2.69
A20R | 3.15
A20S | 3.43
A20T | 3.16
A20V | 1.83
A20W | 2.18
A20Y | 2.34
R21A | 2.48
R21C | 2.31
R21D | 3.52
R21E | 3.57
R21F | 2.65
